Laboratory results as given in patent US20230052369A1 (published 2023).

Key:
[1] = molecular target: T1, purified human monomeric 4-1BB (UniProt Q07011 24-186); test: SPR; 25 °C
[2] = molecular target: T1, purified human monomeric 4-1BB; test: SPR; 25 °C, steady state affinity

T1 sequence (Q07011 other isoform, or with tags, fused parts or gaps): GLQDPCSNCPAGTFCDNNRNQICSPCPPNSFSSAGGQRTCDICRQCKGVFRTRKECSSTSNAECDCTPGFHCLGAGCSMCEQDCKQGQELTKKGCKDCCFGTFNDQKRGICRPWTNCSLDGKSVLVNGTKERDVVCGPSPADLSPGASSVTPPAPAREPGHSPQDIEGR

B1: v20036 (antibody, V domains shown)
VH: QVQLQESGPGLVQPTQSLSITCTVSGFSLISYGVHWVRQSPGKGLEWLGVIWSGGSTDYNAAFISRLSISKDNSKSQVFFKMNSLQADDTAIYYCARNPLTATVMDYWGQGTSVTVSS
VL: DIVMTQSQKFMSTSVGDRVSVTCKASQNVGTNVAWYQQKPGQSPKALIYSASYRDSGVPDRFTGSGSGTDFTLTISNVQSEDLAEYLCQQYNSYPLTFGAGTKLELKR
- Kd [1]: 256 nM

B2: v28696 (antibody, V domains shown)
VH: QVQLQESGPGLVKPSETLSLTCTVSGFSLISYGVHWIRQPPGKGLEWIGVIWSGGSTDYNPSLKSRVTISVDTSKNQFSLKLSSVTAADTAVYYCARNPLTATVMDYWGQGTLVTVSS
VL: DIQMTQSPSSLSASVGDRVTITCRASQNVGTNVAWYQQKPGKAPKALIYSASYRDSGVPSRFSGSGSGTDFTLTISSLQPEDFATYYCQQYNSYPLTFGGGTKVEIKR
- Kd [2]: 687 nM
